Experimental data published in PMC12462484.

Tests used:
[1] = biological target: KSHV ORF74 with L169W, L258V and two C-terminal threonines deleted (apo construct) (Kaposi's Sarcoma-associated Herpesvirus (HHV-8)) (UniProt Q98146); experiment: cryo-EM structure
[2] = biological target: wild-type KSHV ORF74 expressed in HEK293T cells (Kaposi's Sarcoma-associated Herpesvirus (HHV-8)) (UniProt Q98146)

Substance: KSHV ORF74 with L169W, L258V and two C-terminal threonines deleted (apo construct) (from UniProt Q98146 1-340) (receptor)
- stoichiometry N [1]: 2

Substance: Gαq subunit (Rluc8-fused, TRUPATH) (from UniProt P50148 1-359) (natural protein)
- BRET2 (TRUPATH) G protein activation in HEK293T cells, Rluc8-Gαq / Gβ / GFP2-Gγ sensor, dose response to recombinant CXCL1: potency of CXCL1 [2]: 6.7 pEC50
